Measured values: article PMC9605926, “Safety of [^177Lu]Lu-NeoB treatment: a preclinical study characterizing absorbed dose and acute, early, and late organ toxicity” (European Journal of Nuclear Medicine and Molecular Imaging, 2022)

Tested on: healthy Balb/c mice
Experiment: Toxicity study, histopathology (5-point grade); 3 i.v. injections at 7-day interval; control group 2 = 3× 1200 pmol [175Lu]Lu-NeoB; treatment groups 1/2/3 = 3× 40 MBq/400 pmol, 80 MBq/800 pmol, 120 MBq/1200 pmol [177Lu]Lu-NeoB
Type: in vivo, mouse
Experimental: Five different experimental groups (10 male and 10 female healthy animals per group; n = 100) were included in the radiotoxicity study and treated as follows: control group 1: 3 × vehicle (PBS + kolliphor HS 15 (1 mg/mL)); control group 2: 3 × 1200 pmol [^175Lu]Lu-NeoB; treatment group 1: 3 × 40 MBq/400 pmol [^177Lu]Lu-NeoB; treatment group 2: 3 × 80 MBq/800 pmol [^177Lu]Lu-NeoB; and treatment group 3: 3 × 120 MBq/1200 pmol [^177Lu]Lu-NeoB.
Animals received 3 injections with an interval of 7 days between each injection.
At 5, 19, and 43 weeks after the first injection, 3–4 male and 3–4 female animals of each group were sacrificed by isoflurane overdose after a blood sample was taken by retro-orbital puncture. Hereafter, the axillary lymph nodes, mesenteric lymph nodes, skin, mammary fat pad, sternum, pancreas, adrenal glands, kidneys, spleen, liver, gallbladder, stomach, duodenum, jejunum, ileum, caecum, colon, rectum, testes (M), epididymis (M), seminal vesicles (M), prostate gland (M), ovaries (F), oviducts (F), uterus-cervix (F), vagina (F), bladder, ureters, sciatic nerve, skeletal muscle, femur, lungs, trachea, esophagus, thymus, thyroid gland, aorta, heart, brain, pituitary gland, eyes, harderian glands, tongue, spinal column, and the tail were collected and analyzed macroscopically. All organs and tissues were formalin fixed (4% buffered formaldehyde) and shipped to the European Research Biology Centre (ERBC, Pomezia, Rome, Italy) where histological sampling, embedding, sectioning (5 µm thick), and hematoxylin–eosin staining were performed according to standard guidelines. All organs and tissues were analyzed microscopically by an experienced pathologist. A 5-point grading scale was used: 1: minimal change, 2: mild change, 3: moderate change, 4: marked change, 5: severe change.

[1] = female wk 5, treatment group 1, grade 1
[2] = female wk 5, treatment group 1, grade 2
[3] = female wk 5, treatment group 2, grade 1
[4] = female wk 5, treatment group 2, grade 2
[5] = female wk 5, treatment group 3, grade 1
[6] = female wk 5, treatment group 3, grade 2
[7] = female wk 19, treatment group 1, grade 1
[8] = female wk 19, treatment group 1, grade 2
[9] = female wk 19, treatment group 2, grade 1
[10] = female wk 19, treatment group 2, grade 2
[11] = female wk 19, treatment group 3, grade 1
[12] = female wk 19, treatment group 3, grade 2
[13] = female wk 43, treatment group 1, grade 1
[14] = female wk 43, treatment group 1, grade 4
[15] = female wk 43, treatment group 2, grade 1
[16] = female wk 43, treatment group 2, grade 2
[17] = female wk 43, treatment group 3, grade 2
[18] = female wk 43, treatment group 3, grade 3
[19] = female wk 43, treatment group 3, grade 4
[20] = male wk 5, treatment group 1, grade 1
[21] = male wk 5, treatment group 1, grade 2
[22] = male wk 5, treatment group 3, grade 1
[23] = male wk 5, treatment group 3, grade 2
[24] = male wk 19, treatment group 1, grade 1
[25] = male wk 19, treatment group 1, grade 2
[26] = male wk 19, treatment group 2, grade 1
[27] = male wk 19, treatment group 2, grade 2
[28] = male wk 19, treatment group 3, grade 1
[29] = male wk 19, treatment group 3, grade 2
[30] = male wk 43, treatment group 1, grade 1
[31] = male wk 43, treatment group 1, grade 2
[32] = male wk 43, treatment group 2, grade 1
[33] = male wk 43, treatment group 2, grade 2
[34] = male wk 43, treatment group 3, grade 1
[35] = male wk 43, treatment group 3, grade 2
[36] = male wk 43, treatment group 3, grade 3
[37] = week 19, male treatment group 2

`CC(C)CC(CC(C)C)NC(=O)[C@H](Cc1cnc[nH]1)NC(=O)CNC(=O)[C@@H](NC(=O)[C@H](C)NC(=O)[C@H](Cc1c[nH]c2ccccc12)NC(=O)[C@H](CCC(N)=O)NC(=O)[C@@H](Cc1ccccc1)NC(=O)COCC(=O)Nc1ccc(CNC(=O)CN2CCN(CC(=O)O)CCN(CC(=O)O)CCN(CC(=O)O)CC2)cc1)C(C)C` [[^177Lu]Lu-NeoB, metal not drawn] was tested, and the “Adrenal glands subcapsular cell hyperplasia, incidence” value [1] was 1/3, the “Urinary bladder inflammatory cell foci, incidence” value [1] was 1/3 and the “Adrenal glands subcapsular cell hyperplasia, incidence” value [2] was 1/3. For the same compound, the “Spleen extramedullary haematopoiesis, incidence” value [2] was 2/3, the “Adrenal glands subcapsular cell hyperplasia, incidence” value [3] was 3/3 and the “Liver inflammatory cell foci, incidence” value [3] was 1/3. The “Urinary bladder inflammatory cell foci, incidence” value [3] was 1/3, the “Urinary bladder urothelium vacuolation, incidence” value [3] was 2/3 and the “Urinary bladder inflammatory cell foci, incidence” value [4] was 2/3. The “Urinary bladder urothelium vacuolation, incidence” value [4] was 1/3, the “Adrenal glands subcapsular cell hyperplasia, incidence” value [5] was 1/3 and the “Liver inflammatory cell foci, incidence” value [5] was 1/3. For the same compound, the “Thyroid gland follicular cyst/s, incidence” value [5] was 1/3, the “Urinary bladder inflammatory cell foci, incidence” value [5] was 1/3 and the “Urinary bladder urothelium vacuolation, incidence” value [5] was 1/3. The “Spleen extramedullary haematopoiesis, incidence” value [6] was 1/3, the “Urinary bladder inflammatory cell foci, incidence” value [6] was 2/3 and the “Urinary bladder urothelium vacuolation, incidence” value [6] was 2/3. For the same compound, the “Brain artifacts, incidence” value (female wk 5, treatment group 3, grade 3) was 1/3, the “Adrenal glands subcapsular cell hyperplasia, incidence” value [7] was 1/3 and the “Liver inflammatory cell foci, incidence” value [7] was 1/3. For the same compound, the “Pancreas inflammatory cell foci, incidence” value [7] was 2/3, the “Urinary bladder inflammatory cell foci, incidence” value [7] was 2/3 and the “Urinary bladder urothelium vacuolation, incidence” value [7] was 2/3. For the same compound, the “Adrenal glands subcapsular cell hyperplasia, incidence” value [8] was 2/3, the “Liver inflammatory cell foci, incidence” value [8] was 1/3 and the “Urinary bladder inflammatory cell foci, incidence” value [8] was 1/3. The “Kidneys hydronephrosis, incidence” value (female wk 19, treatment group 1, grade 4) was 1/3, the “Adrenal glands subcapsular cell hyperplasia, incidence” value [9] was 2/3 and the “Liver inflammatory cell foci, incidence” value [9] was 2/3. The “Pancreas inflammatory cell foci, incidence” value [9] was 1/3, the “Urinary bladder inflammatory cell foci, incidence” value [9] was 2/3 and the “Urinary bladder urothelium vacuolation, incidence” value [9] was 2/3. For the same compound, the “Adrenal glands subcapsular cell hyperplasia, incidence” value [10] was 1/3, the “Spleen extramedullary haematopoiesis, incidence” value [10] was 1/3 and the “Urinary bladder urothelium vacuolation, incidence” value [10] was 1/3. For the same compound, the “Adrenal glands subcapsular cell hyperplasia, incidence” value [11] was 1/3, the “Pancreas inflammatory cell foci, incidence” value [11] was 1/3 and the “Urinary bladder inflammatory cell foci, incidence” value [11] was 1/3. For the same compound, the “Urinary bladder urothelium vacuolation, incidence” value [11] was 1/3, the “Adrenal glands subcapsular cell hyperplasia, incidence” value [12] was 2/3 and the “Kidneys nephropathy, incidence” value [12] was 1/3. For the same compound, the “Pancreas inflammatory cell foci, incidence” value [12] was 1/3, the “Ureter(s) dilatation, incidence” value [12] was 1/3 and the “Urinary bladder inflammatory cell foci, incidence” value [12] was 1/3. The “Urinary bladder urothelium vacuolation, incidence” value [12] was 1/3, the “Urinary bladder inflammatory cell foci, incidence” value (female wk 19, treatment group 3, grade 3) was 1/3 and the “Kidneys hydronephrosis, incidence” value (female wk 19, treatment group 3, grade 4) was 3/3. The “Urinary bladder inflammatory cell foci, incidence” value [13] was 1/3, the “Urinary bladder urothelium vacuolation, incidence” value [13] was 1/3 and the “Adrenal glands subcapsular cell hyperplasia, incidence” value (female wk 43, treatment group 1, grade 2) was 2/3. The “Adrenal glands subcapsular cell hyperplasia, incidence” value (female wk 43, treatment group 1, grade 3) was 1/3, the “Ovaries atrophy, incidence” value [14] was 3/3 and the “Uterus endometrial hyperplasia, incidence” value [14] was 3/3. For the same compound, the “Liver inflammatory cell foci, incidence” value [15] was 3/4, the “Urinary bladder inflammatory cell foci, incidence” value [15] was 1/4 and the “Urinary bladder urothelium vacuolation, incidence” value [15] was 1/4. The “Adrenal glands subcapsular cell hyperplasia, incidence” value [16] was 3/4, the “Lungs alveolar epithelialization, incidence” value [16] was 1/4 and the “Adrenal glands subcapsular cell hyperplasia, incidence” value (female wk 43, treatment group 2, grade 3) was 1/4. The “Ovaries atrophy, incidence” value (female wk 43, treatment group 2, grade 4) was 3/4, the “Kidneys hydronephrosis, incidence” value (female wk 43, treatment group 2, grade 5) was 1/4 and the “Adrenal glands subcapsular cell hyperplasia, incidence” value [17] was 4/4. For the same compound, the “Pancreas inflammatory cell foci, incidence” value [17] was 1/4, the “Urinary bladder mineralization, incidence” value [17] was 1/4 and the “Lungs B-adenoma, incidence” value [18] was 1/4. For the same compound, the “Ureter(s) dilation, incidence” value [18] was 1/4, the “Kidneys hydronephrosis, incidence” value [19] was 1/4 and the “Ovaries atrophy, incidence” value [19] was 4/4. The “Kidneys hydronephrosis, incidence” value (female wk 43, treatment group 3, grade 5) was 1/4, the “Adrenal glands subcapsular cell hyperplasia, incidence” value [20] was 1/3 and the “Pancreas acinar cell degeneration, incidence” value [20] was 1/3. For the same compound, the “Spleen extramedullary haematopoiesis, incidence” value [21] was 2/3, the “Testes germ cell depletion, incidence” value [21] was 1/3 and the “Thyroid gland ectopic thymus, incidence” value (male wk 5, treatment group 1, grade 3) was 1/3. The “Testes germ cell depletion, incidence” value (male wk 5, treatment group 2, grade 1) was 1/3, the “Thyroid gland ectopic thymus, incidence” value (male wk 5, treatment group 2, grade 3) was 1/3 and the “Prostate gland inflammatory cell foci, incidence” value [22] was 2/3. The “Testes germ cell depletion, incidence” value [22] was 1/3, the “Urinary bladder inflammatory cell foci, incidence” value [22] was 3/3 and the “Urinary bladder urothelium vacuolation, incidence” value [22] was 2/3. For the same compound, the “Heart inflammatory cell foci, incidence” value [23] was 1/3, the “Pancreas mineralization, incidence” value [23] was 1/3 and the “Urinary bladder mineralization, incidence” value [23] was 1/3. For the same compound, the “Urinary bladder urothelium vacuolation, incidence” value [23] was 1/3, the “Adrenal glands subcapsular cell hyperplasia, incidence” value [24] was 1/3 and the “Testes germ cell depletion, incidence” value [24] was 2/3. The “Adrenal glands subcapsular cell hyperplasia, incidence” value [25] was 1/3, the “Spleen extramedullary haematopoiesis, incidence” value [25] was 1/3 and the “Thyroid gland ectopic thymus, incidence” value (male wk 19, treatment group 1, grade 3) was 1/3. The “Adrenal glands subcapsular cell hyperplasia, incidence” value [26] was 1/3, the “Urinary bladder inflammatory cell foci, incidence” value [26] was 2/3 and the “Urinary bladder urothelium vacuolation, incidence” value [26] was 3/3. For the same compound, the “Adrenal glands subcapsular cell hyperplasia, incidence” value [27] was 1/3, the “Pancreas inflammatory cell foci, incidence” value [27] was 2/3 and the “Kidneys hydronephrosis, incidence” value (male wk 19, treatment group 2, grade 3) was 1/3. For the same compound, the “Kidneys hydronephrosis, incidence” value (male wk 19, treatment group 2, grade 4) was 2/3, the “Adrenal glands subcapsular cell hyperplasia, incidence” value [28] was 2/3 and the “Urinary bladder urothelium vacuolation, incidence” value [28] was 1/3. For the same compound, the “Adrenal glands subcapsular cell hyperplasia, incidence” value [29] was 1/3, the “Spleen extramedullary haematopoiesis, incidence” value [29] was 1/3 and the “Thyroid gland ectopic thymus, incidence” value (male wk 19, treatment group 3, grade 3) was 1/3. For the same compound, the “Kidneys hydronephrosis, incidence” value (male wk 19, treatment group 3, grade 4) was 2/3, the “Adrenal glands subcapsular cell hyperplasia, incidence” value [30] was 2/3 and the “Kidneys inflammatory cell foci, incidence” value [30] was 1/3. The “Kidneys nephropathy, incidence” value [30] was 2/3, the “Pancreas acinar cell degeneration, incidence” value [30] was 1/3 and the “Pancreas inflammatory cell foci, incidence” value [30] was 1/3. The “Skin inflammatory cell foci, incidence” value [30] was 1/3, the “Skin scab formulation, incidence” value [30] was 1/3 and the “Urinary bladder inflammatory cell foci, incidence” value [30] was 1/3. For the same compound, the “Adrenal glands subcapsular cell hyperplasia, incidence” value [31] was 1/3, the “Pancreas inflammatory cell foci, incidence” value [31] was 2/3 and the “Adrenal glands subcapsular cell hyperplasia, incidence” value [32] was 2/4. The “Kidneys nephropathy, incidence” value [32] was 1/4, the “Urinary bladder inflammatory cell foci, incidence” value [32] was 2/4 and the “Urinary bladder urothelium vacuolation, incidence” value [32] was 1/4. For the same compound, the “Adrenal glands subcapsular cell hyperplasia, incidence” value [33] was 1/4, the “Kidneys nephropathy, incidence” value [33] was 1/4 and the “Pancreas inflammatory cell foci, incidence” value [33] was 2/4. The “Urinary bladder inflammatory cell foci, incidence” value [33] was 1/4, the “Adrenal glands subcapsular cell hyperplasia, incidence” value (male wk 43, treatment group 2, grade 3) was 1/4 and the “Kidneys hydronephrosis, incidence” value (male wk 43, treatment group 2, grade 4) was 2/4. The “Adrenal glands subcapsular cell hyperplasia, incidence” value [34] was 3/4, the “Kidneys nephropathy, incidence” value [34] was 1/4 and the “Liver inflammatory cell foci, incidence” value [34] was 2/4. The “Pancreas inflammatory cell foci, incidence” value [34] was 2/4, the “Skin inflammatory cell foci, incidence” value [34] was 1/4 and the “Testes germ cell depletion, incidence” value [34] was 1/4. The “Adrenal glands subcapsular cell hyperplasia, incidence” value [35] was 1/4, the “Kidneys cyst/s, incidence” value [35] was 1/4 and the “Epididymides spermatic granuloma, incidence” value [36] was 1/4. The “Ureter(s) dilation, incidence” value [36] was 1/4, the “Kidneys hydronephrosis, incidence” value (male wk 43, treatment group 3, grade 4) was 3/4 and the “Cytoplasmic vacuolation of urothelial cells, incidence” value (shortened to “Cytoplasmic vacuolation”) (week 5, female treatment group 2, minimal or mild) was 3/3. For the same compound, the “Cytoplasmic vacuolation” value (week 5, female treatment group 3, minimal or mild) was 3/3, the “Cytoplasmic vacuolation” value (week 5, male treatment group 3, minimal or mild) was 3/3 and the “Cytoplasmic vacuolation” value (week 19, all female treatment groups) was 7/9. The “Hydronephrosis, incidence” value (week 19, female treatment group 1) was 1/3, the “Hydronephrosis, incidence” value (week 19, female treatment group 3) was 3/3 and the “Cytoplasmic vacuolation” value [37] was 3/3. For the same compound, the “Hydronephrosis, incidence” value [37] was 3/3, the “Hydronephrosis, incidence” value (week 19, male treatment group 3) was 2/3 and the “Marked ovarian atrophy, incidence” value (week 43, all treated females) was 10/11. The “Marked or severe hydronephrosis, incidence” value (week 43, female treatment group 2) was 1/4, the “Marked or severe hydronephrosis, incidence” value (week 43, female treatment group 3) was 2/4 and the “Marked or severe hydronephrosis, incidence” value (week 43, male treatment group 2) was 2/4. The “Marked or severe hydronephrosis, incidence” value (week 43, male treatment group 3) was 3/4.
